Assay results published in patent US20100184672A1 (published 2010).

Experiments:
[1] = target: T1, glycocalicin (the proteolytic fragment of GPIb) (human, UniProt P07359 17-506); experiment: SPR, comparison of Kd with that of VWF A1 on glycocalicin
T1 construct: domain: glycocalicin (the proteolytic fragment of GPIb); Purified from human platelets; coated on the SPR sensor
Excerpt: (§1) The sensorgrams at different concentrations were obtained and normalized by subtracting background signals from the glycocalicin surface.

[2] = target: T1, glycocalicin (the proteolytic fragment …); experiment: SPR, ligand perfused over glycocalicin-coated sensor, Langmuir one-to-one fit
Excerpt: as §1

fold difference against the interaction of GPIb and VWF A1 [1]: ~10 fold | Kd [2]: 308 nM
B1: Activated protein C (APC), human plasma-derived (enzyme)
chain 1: ANSFLEELRHSSLERECIEEICDFEEAKEIFQNVDDTLAFWSKHVDGDQCLVLPLEHPCASLCCGHGTCIDGIGSFSCDCRSGWEGRFCQREVSFLNCSLDNGGCTHYCLEEVGWRRCSCAPGYKLGDDLLQCHPAVKFPCGRPWKRMEKKRSHL
chain 2: LIDGKMTRRGDSPWQVVLLDSKKKLACGAVLIHPSWVLTAAHCMDESKKLLVRLGEYDLRRWEKWELDLDIKEVFVHPNYSKSTTDNDIALLHLAQPATLSQTIVPICLPDSGLAERELNQAGQETLVTGWGYHSSREKEAKRNRTFVLNFIKIPVVPHNECSEVMSNMVSENMLCAGILGDRQDACEGDSGGPMVASFHGTWFLVGLVSWGEGCGLLHNYGVYTKVSRYLDWIHGHIRDKEAPQKSWAP
notes: mature
